Reference: patent US20150344570A1 (published 2015)

T1: FcγRIIa R (FcγRIIa allotype with Arg at position 131), extracellular domain with C-terminal His tag (human, UniProt P12318 34-217)
T1 construct: extracellular domain; made in FreeStyle293 cells; analyte in the Biacore assay; also called FcγRIIa type R; 2aR
T1 sequence (looked up): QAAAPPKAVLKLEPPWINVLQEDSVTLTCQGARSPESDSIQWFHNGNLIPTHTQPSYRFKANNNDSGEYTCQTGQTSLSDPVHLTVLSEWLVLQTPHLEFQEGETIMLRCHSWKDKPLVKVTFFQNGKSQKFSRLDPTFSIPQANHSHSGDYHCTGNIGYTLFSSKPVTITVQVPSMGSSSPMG

T2: FcγRIIb, extracellular domain with C-terminal His tag (human, UniProt P31994 43-217)
T2 construct: extracellular domain; made in FreeStyle293 cells; analyte in the Biacore assay; also called 2b; FcgRIIb
T2 sequence (looked up): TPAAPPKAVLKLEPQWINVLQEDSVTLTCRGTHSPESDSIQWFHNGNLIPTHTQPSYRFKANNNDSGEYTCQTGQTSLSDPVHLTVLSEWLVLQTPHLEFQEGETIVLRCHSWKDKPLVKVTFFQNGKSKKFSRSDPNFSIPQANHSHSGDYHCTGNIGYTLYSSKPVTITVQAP

B1: GpH7-A5/GpH7-B3 variant G236_02A/GpL16-k0 (antibody, human IgG1, kappa)
heavy 1: not shown
heavy 2: not shown
light: DIVMTQSPLSLPVTPGEPASISCQASESLVHSNRNTYLHWYLQKPGQSPQLLIYKVSNRFSGVPDRFSGSGSGTDFTLKISRVEAEDVGVYYCSQNTHVPPTFGQGTKVEIERTVAAPSVFIFPPSDEQLKSGTASVVCLLNNFYPREAKVQWKVDNALQSGNSQESVTEQDSKDSTYSLSSTLTLSKADYEKHKVYACEVTHQGLSSPVTKSFNRGEC
notes: heterodimerized IgG1, mutation in one H chain only; also called He Ab
B2: GpH7-A5/GpH7-B3 variant G236_03V/GpL16-k0 (antibody, human IgG1, kappa)
heavy 1: not shown
heavy 2: not shown
light: B1 light
notes: as for B1
B3: GpH7-A5/GpH7-B3 variant G236_04F/GpL16-k0 (antibody, human IgG1, kappa)
heavy 1: not shown
heavy 2: not shown
light: B1 light
notes: as for B1
B4: GpH7-A5/GpH7-B3 variant G236_05P/GpL16-k0 (antibody, human IgG1, kappa)
heavy 1: not shown
heavy 2: not shown
light: B1 light
notes: as for B1
B5: GpH7-A5/GpH7-B3 variant G236_06M/GpL16-k0 (antibody, human IgG1, kappa)
heavy 1: not shown
heavy 2: not shown
light: B1 light
notes: as for B1
B6: GpH7-A5/GpH7-B3 variant G236_07I/GpL16-k0 (antibody, human IgG1, kappa)
heavy 1: not shown
heavy 2: not shown
light: B1 light
notes: as for B1
B7: GpH7-A5/GpH7-B3 variant G236_08L/GpL16-k0 (antibody, human IgG1, kappa)
heavy 1: not shown
heavy 2: not shown
light: B1 light
notes: as for B1
B8: GpH7-A5/GpH7-B3 variant G236_12R/GpL16-k0 (antibody, human IgG1, kappa)
heavy 1: not shown
heavy 2: not shown
light: B1 light
notes: as for B1
B9: GpH7-A5/GpH7-B3 variant G236_13S/GpL16-k0 (antibody, human IgG1, kappa)
heavy 1: not shown
heavy 2: not shown
light: B1 light
notes: as for B1
B10: GpH7-A5/GpH7-B3 variant G236_14T/GpL16-k0 (antibody, human IgG1, kappa)
heavy 1: not shown
heavy 2: not shown
light: B1 light
notes: as for B1
B11: GpH7-A5/GpH7-B3 variant L234_01G/GpL16-k0 (antibody, human IgG1, kappa)
heavy 1: not shown
heavy 2: not shown
light: B1 light
notes: as for B1
B12: GpH7-A5/GpH7-B3 variant L234_02A/GpL16-k0 (antibody, human IgG1, kappa)
heavy 1: not shown
heavy 2: not shown
light: B1 light
notes: as for B1
B13: GpH7-A5/GpH7-B3 variant L234_05P/GpL16-k0 (antibody, human IgG1, kappa)
heavy 1: not shown
heavy 2: not shown
light: B1 light
notes: as for B1
B14: GpH7-A5/GpH7-B3 variant L234_11K/GpL16-k0 (antibody, human IgG1, kappa)
heavy 1: not shown
heavy 2: not shown
light: B1 light
notes: as for B1
B15: GpH7-A5/GpH7-B3 variant L234_12R/GpL16-k0 (antibody, human IgG1, kappa)
heavy 1: not shown
heavy 2: not shown
light: B1 light
notes: as for B1
B16: GpH7-A5/GpH7-B3 variant L234_14T/GpL16-k0 (antibody, human IgG1, kappa)
heavy 1: not shown
heavy 2: not shown
light: B1 light
notes: as for B1

Target: T1, FcγRIIa R (FcγRIIa allotype with Arg at …)
Assay: SPR (Biacore); He/Con_2aR divided by He/Con_2b, binding to FcγRIIa R against binding to FcγRIIb
Protocol: The heterodimerized antibodies He Abs in which one of the H chains was introduced with an alteration were assayed for their binding activities to each activating FcγR and inhibitory FcγR according to the method described in Example 4. […] The activating FcγRs in FIGS. 26, 27, 28, and 29 are FcγRIa, FcγRIIa (R), FcγRIIa (H), and FcγRIIIa, respectively.
Analysis of interaction between objective antibody and the FcγR was carried out using Biacore T100 (GE Healthcare). HBS-EP+ (GE Healthcare) was used as the running buffer, and the measurement temperature was set to 25° C. Chips produced by immobilizing the antigen peptide by the amine coupling method to a Series S Sencor Chip CM5 (GE Healthcare), or alternatively, chips produced by allowing preliminarily biotinylated antigen peptides to interact with and immobilize onto a Series S Sensor Chip SA (certified) (GE Healthcare) were used. Antibodies of interest were captured onto an antigen peptide-immobilized chip, and allowed to interact to each FcγR diluted with running buffer. To regenerate and repeatedly use the chip, the antibodies captured on the chip were washed off by reacting 10 mM glycine-HCl, pH 1.5.

| He_2aR/2b (IIaR/IIb) | Binder |
| --- | --- |
| 1.51 ratio | B1 |
| 2.6 ratio | B2 |
| 1.35 ratio | B3 |
| 2.52 ratio | B4 |
| 1.26 ratio | B5 |
| 2.81 ratio | B6 |
| 2.45 ratio | B7 |
| 3.55 ratio | B8 |
| 1.41 ratio | B9 |
| 1.78 ratio | B10 |
| 1.23 ratio | B11 |
| 1.23 ratio | B12 |
| 1.23 ratio | B13 |
| 1.66 ratio | B14 |
| 1.58 ratio | B15 |
| 1.24 ratio | B16 |

Target: T2, FcγRIIb, extracellular domain with …
Assay: SPR (Biacore), antibody captured, FcγR analyte; vs GpH7-A5/GpH7-B3/GpL16-k0 = 100

| He/Con_2b | Binder |
| --- | --- |
| 96.5 relative (HeCon Ab = 100) | B1 |
| 35.3 relative (HeCon Ab = 100) | B2 |
| 39.3 relative (HeCon Ab = 100) | B3 |
| 19 relative (HeCon Ab = 100) | B4 |
| 45.5 relative (HeCon Ab = 100) | B5 |
| 31 relative (HeCon Ab = 100) | B6 |
| 26.8 relative (HeCon Ab = 100) | B7 |
| 6.8 relative (HeCon Ab = 100) | B8 |
| 96.7 relative (HeCon Ab = 100) | B9 |
| 57.8 relative (HeCon Ab = 100) | B10 |
| 50.7 relative (HeCon Ab = 100) | B11 |
| 64.9 relative (HeCon Ab = 100) | B12 |
| 72.9 relative (HeCon Ab = 100) | B13 |
| 16.2 relative (HeCon Ab = 100) | B14 |
| 18.9 relative (HeCon Ab = 100) | B15 |
| 62.5 relative (HeCon Ab = 100) | B16 |

Target: T1, FcγRIIa R (FcγRIIa allotype with Arg at …)
Assay: as above

| He/Con_2aR | Binder |
| --- | --- |
| 146 relative (HeCon Ab = 100) | B1 |
| 91.6 relative (HeCon Ab = 100) | B2 |
| 53.1 relative (HeCon Ab = 100) | B3 |
| 47.9 relative (HeCon Ab = 100) | B4 |
| 57.3 relative (HeCon Ab = 100) | B5 |
| 87.1 relative (HeCon Ab = 100) | B6 |
| 65.8 relative (HeCon Ab = 100) | B7 |
| 24.1 relative (HeCon Ab = 100) | B8 |
| 136 relative (HeCon Ab = 100) | B9 |
| 103 relative (HeCon Ab = 100) | B10 |
| 62.3 relative (HeCon Ab = 100) | B11 |
| 79.6 relative (HeCon Ab = 100) | B12 |
| 89.6 relative (HeCon Ab = 100) | B13 |
| 26.8 relative (HeCon Ab = 100) | B14 |
| 29.9 relative (HeCon Ab = 100) | B15 |
| 77.5 relative (HeCon Ab = 100) | B16 |
